Experimental data as given in patent publication US7750123B2.

Substrate: S protein of GD03T on pseudotyped HIV virus (SARS-CoV (GD03T0013 isolate))

B1: 80R IgG1 (antibody, V domains shown)
VH: EVQLVQSGGGVVQPGKSLRLSCAASGFAFSSYAMHWVRQAPGKGLEWVAVISYDGSNKYYADSVKGRFTISRDNSKNTLYLQMNSLRAEDTAVYYCARDRSYYLDYWGQGTLVTVSS
VL: ETTLTQSPATLSLSPGERATLSCRASQSVRSNLAWYQQKPGQAPRPLIYDASTRATGIPDRFSGSGSGTDFTLTISRLEPEDFAVYYCQQRSNWPPTFGQGTKVEVK
Question: With B1 as the binder, how does the inhibition of pseudoviral infection of ACE2-expressing 293T cells (luciferase) read?
Answer: Its inhibition of pseudoviral infection of ACE2-expressing 293T cells (luciferase) is greater than 50 µg/mL.
